Experimental data from the supplement of paper PMC7125110.
± gives the standard error. Variants at the floor of the assay were thinned out.

B1: glmS ribozyme (parent)
chain: AUAAAAGCGCCAGAACUACAGAAAUGUAGUUGACGAGGAGGAGGUUUAUCGAAUUUUCGGCGGAUGCCUCCAAA

Experiments:
Conditions in all cases: with glucosamine-6-phosphate
[1] = variants of: B1; test: self-cleavage kobs at 40 uM GlcN6P; higher = faster cleavage; RNA array
In short: (§1)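 Weighted Michaelis–Menten fits across concentrations supplied kcat and KM, based on kobs from one- or two-exponential decay fits to normalised per-tile medians. The data came from barcoded ribozyme variants transcribed in situ by E. coli RNA polymerase on sequenced MiSeq chips and tracked at 37 °C by a hybridised Cy3 probe. Glucosamine-6-phosphate (40 μM to 10 mM) in HEPES/KCl/Mg(OAc)2 buffer was flowed in.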

[2] = variants of: B1; test: self-cleavage kobs at 10000 uM GlcN6P; higher = faster cleavage; RNA array
In short: as §1

[3] = variants of: B1; test: self-cleavage kobs at 160 uM GlcN6P; higher = faster cleavage; RNA array
In short: as §1

[4] = variants of: B1; test: self-cleavage kobs at 640 uM GlcN6P; higher = faster cleavage; RNA array
In short: as §1

[5] = variants of: B1; test: self-cleavage kobs at 2500 uM GlcN6P; higher = faster cleavage; RNA array
In short: as §1

Variant	self-cleavage kobs at 40 uM GlcN6P [1]	self-cleavage kobs at 10000 uM GlcN6P [2]	self-cleavage kobs at 160 uM GlcN6P [3]	self-cleavage kobs at 640 uM GlcN6P [4]	self-cleavage kobs at 2500 uM GlcN6P [5]
A6C U30G G51A U65G	< 1e-05 s⁻¹	< 1e-05 s⁻¹	–	–	–
G32C U46A	< 1e-05 s⁻¹	–	< 1e-05 s⁻¹	< 1e-05 s⁻¹	–
G35A G40C A48G G62U G63C	< 1e-05 s⁻¹	–	–	–	–
A14C U56G	0.00282 ± 0.00046 s⁻¹	0.0693 ± 0.022 s⁻¹	0.00922 ± 0.003 s⁻¹	0.0201 ± 0.0065 s⁻¹	0.00838 ± 0.0029 s⁻¹
A33C A48G	< 1e-05 s⁻¹	< 1e-05 s⁻¹	< 1e-05 s⁻¹	< 1e-05 s⁻¹	–
U56C G59C	< 1e-05 s⁻¹	< 1e-05 s⁻¹	–	–	–
A33C C34A	< 1e-05 s⁻¹	< 1e-05 s⁻¹	< 1e-05 s⁻¹	< 1e-05 s⁻¹	< 1e-05 s⁻¹
C16U U45C A48U C68U	< 1e-05 s⁻¹	–	–	–	–
C8G A39C U55G G59U	< 1e-05 s⁻¹	< 1e-05 s⁻¹	–	–	–
C10G C50U U54G U56G	< 1e-05 s⁻¹	< 1e-05 s⁻¹	–	–	–
U30G A39G C50G C68G	0.00025 ± 6.5e-05 s⁻¹	0.000218 ± 4.7e-05 s⁻¹	–	–	–
G60U C61U	< 1e-05 s⁻¹	< 1e-05 s⁻¹	–	< 1e-05 s⁻¹	–
A36U G59C	< 1e-05 s⁻¹	< 1e-05 s⁻¹	–	< 1e-05 s⁻¹	–
A36G C50U U57A	< 1e-05 s⁻¹	< 1e-05 s⁻¹	–	–	–
G9C A48C	< 1e-05 s⁻¹	–	–	< 1e-05 s⁻¹	< 1e-05 s⁻¹
G37A G38U C71U	< 1e-05 s⁻¹	–	–	–	–
G13A A15U G37C	< 1e-05 s⁻¹	–	–	–	–
U31C G43C	< 1e-05 s⁻¹	< 1e-05 s⁻¹	–	< 1e-05 s⁻¹	< 1e-05 s⁻¹
C11U G59C C71G	< 1e-05 s⁻¹	–	–	–	–
G7C A39G	< 1e-05 s⁻¹	< 1e-05 s⁻¹	< 1e-05 s⁻¹	< 1e-05 s⁻¹	< 1e-05 s⁻¹
C16G U31C G37C A53G	< 1e-05 s⁻¹	–	–	–	–
A15G U49C	< 1e-05 s⁻¹	–	–	< 1e-05 s⁻¹	–
C10U G40U	< 1e-05 s⁻¹	< 1e-05 s⁻¹	–	–	–
A53U C61A	< 1e-05 s⁻¹	< 1e-05 s⁻¹	–	–	–
G7U A52G	< 1e-05 s⁻¹	–	< 1e-05 s⁻¹	–	–

Variant	self-cleavage kobs at 40 uM GlcN6P [1]	self-cleavage kobs at 10000 uM GlcN6P [2]	self-cleavage kobs at 160 uM GlcN6P [3]	self-cleavage kobs at 640 uM GlcN6P [4]	self-cleavage kobs at 2500 uM GlcN6P [5]
G13C A36G	< 1e-05 s⁻¹	< 1e-05 s⁻¹	< 1e-05 s⁻¹	–	–
G29U G63C	< 1e-05 s⁻¹	< 1e-05 s⁻¹	–	< 1e-05 s⁻¹	–
A15C C16U U57A G66C	< 1e-05 s⁻¹	< 1e-05 s⁻¹	–	–	–
C11U U69G	5.87e-05 ± 1.4e-05 s⁻¹	5.87e-05 ± 8.8e-06 s⁻¹	7.55e-05 ± 2.7e-05 s⁻¹	0.000286 ± 6.5e-05 s⁻¹	9.51e-05 ± 2.1e-05 s⁻¹
U30C G41A A42C C50G	< 1e-05 s⁻¹	< 1e-05 s⁻¹	–	–	–
A12U U45A U49G C50U G63U U69C	< 1e-05 s⁻¹	< 1e-05 s⁻¹	–	< 1e-05 s⁻¹	< 1e-05 s⁻¹
G9A G63C	< 1e-05 s⁻¹	< 1e-05 s⁻¹	–	–	–
G9C A36G	< 1e-05 s⁻¹	< 1e-05 s⁻¹	–	< 1e-05 s⁻¹	–
G7C A39G C70U	< 1e-05 s⁻¹	< 1e-05 s⁻¹	–	–	–
C10A A48G	< 1e-05 s⁻¹	< 1e-05 s⁻¹	< 1e-05 s⁻¹	< 1e-05 s⁻¹	–
A48U G63A	< 1e-05 s⁻¹	< 1e-05 s⁻¹	–	< 1e-05 s⁻¹	< 1e-05 s⁻¹
A12C U31C A39C U57G C67A	< 1e-05 s⁻¹	< 1e-05 s⁻¹	–	–	–
A15G C50A	< 1e-05 s⁻¹	3.83e-05 ± 1.4e-05 s⁻¹	–	–	–
G7A A14C G40A U49A C71U	< 1e-05 s⁻¹	–	–	–	–
C10A G37U A42U C67G C68G	7.19e-05 ± 2e-05 s⁻¹	–	–	–	–
C34U G41U G62U	< 1e-05 s⁻¹	–	–	–	–
A6G U46G	< 1e-05 s⁻¹	7.11e-05 ± 8.7e-06 s⁻¹	< 1e-05 s⁻¹	–	–
A6U C11U G44U	< 1e-05 s⁻¹	< 1e-05 s⁻¹	–	< 1e-05 s⁻¹	< 1e-05 s⁻¹
A42G G44U	< 1e-05 s⁻¹	3.58e-05 ± 1.2e-05 s⁻¹	< 1e-05 s⁻¹	–	–
G44A U46C A53U C61U	< 1e-05 s⁻¹	–	–	–	–
A39G C71G	0.000215 ± 2.7e-05 s⁻¹	0.00538 ± 0.0012 s⁻¹	0.000373 ± 6.9e-05 s⁻¹	0.000657 ± 8.3e-05 s⁻¹	0.00189 ± 0.00037 s⁻¹
G9A A14C	< 1e-05 s⁻¹	–	< 1e-05 s⁻¹	–	< 1e-05 s⁻¹
A12G U30A A42G U54C	< 1e-05 s⁻¹	6.88e-05 ± 2.4e-05 s⁻¹	–	–	–
G7C C16G C61A	< 1e-05 s⁻¹	< 1e-05 s⁻¹	–	< 1e-05 s⁻¹	< 1e-05 s⁻¹
